Assays:
[1] = Instantaneous gelation time sweep of peptide sequences 1, 3 and 4; type: physicochemical; conditions: for final gel strength after 30 minute gelation time sweep: triggered with 100 mM CaCl2 solution (FIG. 12, 13)
Experimental: Similar to the methods used in U.S. 2013/0018004. Hydrogels were prepared with peptide 1, 3, and 4 alone, or mixture of peptide sequence 1 and 4 at 1:1 ratio. Hydrogels were triggered by calcium ions and BSA alone or co-trigger (calcium ions+BSA).

HeLa cells = test: HeLa cell viability (CCK-8) in 3D h9e hydrogel; type: cell-based; conditions: 3-day treatment, various concentrations of camptothecin, in h9e hydrogel
Experimental: Cell culture and drug efficacy/diffusion tests: HeLa cells were grown in the hydrogel in 3D. Aliquots of HeLa cells solution were added into […] hydrogel with DMEM containing 10% FBS with a final peptide concentration of 0, 0.25, 0.5 and 1 wt %. 100 μl of cell mixture solution (3×10^4 cells per well) was seeded into a 96-well culture plate (Becton Dickinson Labware, Franklin Lakes, N.J.) and placed in an incubator (Nuair, Playmouth, Minn.) in a humidified 5% CO2 atmosphere at 37° C. for about 30 min. After complete hydrogelation, 10 μl of DMEM containing 0, 50 uM, 100 uM, or 200 uM camptothecin was added on top of the hydrogel to obtain camptothecin concentrations of 0 μM, 3.125 μM, 6.25 μM, and 12.5 μM, respectively, upon total diffusion in the hydrogel. Then, 50 ul of DMEM was carefully added to the top of the hydrogel to prevent drying during long-term incubation. All measurements were made at least in triplicate, and the plates were incubated for 3 days. A CCK-8 assay was used to determine cell viability after each treatment. 10 μL of CCK solution was added to each well. After 4 h of incubation, the absorbance at 450 nm was collected on a microplate reader (mQuant, Bio-Tek) and corrected by subtracting the background signal from a wall containing only 160 ul DMEM containing 10% FBS. […]

[2] = Gelation test of ECM ligand built-in or blended hydrogels; type: physicochemical; conditions: 0.5% peptide solution triggered with 0.5% BSA solution, 37° C., 30 min
Experimental: In this Example, an ECM ligand RGD built-in peptide (i.e., FLIVI-GSII-GPGGDGPGGDGRGD (SEQ ID NO:69)) was formulated into a hydrogel at 0.5% peptide solution triggered with 0.5% BSA solution. Gelation test was performed at 37° C. for 30 min. Gel strength was about 500 Pa, similar as the regular h9e hydrogel (FIG. 18.). Peptide synthesis followed the same procedure described in Example V.
Rheology Measurements: The hydrogel samples were characterized for mechanical properties. Gelation was determined right after the peptide solution triggered using either metal ion (i.e., Ca++) or albumin proteins (i.e., BSA) using C-VOR 150 rheometer system at both room temperature and 37° C. following our previous procedure. The maximum gel strength after 24 hours was used as the gel strength. The hydrogel samples after 24 hours was used and loaded in the probe system, and examined at a single frequency (1 Hz) and steady shear strain (1%). For shear-thinning experiments, the samples were subjected to shear and then observe the strain of the storage (G′) and loss (G″) modulus as a function of time following our previous procedures.
Regular h9e peptide described in Example VI can be blended with ECM ligands and functional proteins. […]

Row | Molecule | hydrogel formation [1] | final gel strength after 30 minute gelation time sweep [1] | other results
1 | FLIVIGSIIPGGGDGPGGD (Derivative of spider flagelliform silk protein and a trans-membrane segment of subunit IV in the dihydropyridine sensitive human muscle L-type calcium channel) [Sequence 3] | yielded a peptide hydrogel | 196 Pa | –
2 | CC[C@@]1(O)C(=O)OCc2c1cc1n(c2=O)Cc2cc3ccccc3nc2-1 [Camptothecin, reference compound] | – | – | HeLa cell viability (HeLa cells): dose-dependent decrease in cell viability
3 | FLIVI-GSII-GPGGDGPGGDGRGD (FLIVIGSIIGPGGDGPGGDGRGD; FLIVI-GSII N-terminal extension; Derivative of spider flagelliform silk protein and a trans-membrane segment of subunit IV in the dihydropyridine sensitive human muscle L-type calcium channel with built-in ECM ligand) [SEQ ID NO:69] | – | – | Gel strength [2]: about 500 Pa
4 | FLIVIGSIIGPGVDPGGAD (Derivative of spider flagelliform silk protein and a trans-membrane segment of subunit IV in the dihydropyridine sensitive human muscle L-type calcium channel) [Sequence 4] | yielded a peptide hydrogel | 496 Pa | gel strength ([1]; triggered with BSA): about 150 Pa; gel strength ([1]; triggered with calcium): about 550 Pa

Reference: patent publication US11135163B2, “Peptide hydrogel properties and its applications” (Kansas State University Research Foundation, priority 2014, dated 2021)
